Measurements reported in patent publication US20120058906A1 (published 2012).

What was measured:
[1] = molecular target: T1, rHuman IGF-1 sR (IGF-1 sR), CF (R&D Systems Cat#391-GR) (human, UniProt P08069 31-932); assay: ECL (MSD Multi-Spot) titration, antigen spotted on plate; Fab 0.51 µM; blank spot 1096;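 also: blank spot per well as comparator with Hit at signal to blank ratio of 4 or more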
T1 construct: Bought soluble receptor; also called insulin-like growth factor-1 soluble receptor; IGF-R1

[2] = molecular target: T2, Recombinant Human DLL4 (R&D Systems Cat#1506-D4/CF) (human, UniProt Q9NR61 27-524); assay: as above
T2 construct: Bought recombinant protein; also called delta-like protein 4

[3] = molecular target: T3, rHuman ErbB2/Fc Chimera, CF (R&D Systems Cat#1129-ER) (human, UniProt P04626 23-652); assay: as above
T3 construct: Bought Fc chimera; also called HER2/neu; human epidermal growth factor 2 receptor; Fc part of the bought chimera not given

[4] = molecular target: T4, rHuman HGF R/c-MET/Fc Chimera, CF (R&D Systems Cat#358-MT/CF) (human, UniProt P08581 25-932); assay: as above
T4 construct: Bought Fc chimera; also called HGF R/Fc; hepatocyte growth factor receptor; Fc part of the bought chimera not given

[5] = molecular target: T5, rHuman CD44/Fc Chimera, CF (R&D Systems Cat#3660-CD) (human, UniProt P16070 21-220); assay: as above
T5 construct: Bought Fc chimera; Fc part of the bought chimera not given

[6] = molecular target: T1, rHuman IGF-1 sR (IGF-1 sR), CF (R&D …); assay: ECL (MSD Multi-Spot) titration, antigen spotted on plate; Fab 0.1275 µM; blank spot 530;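 also: blank spot per well as comparator with Hit at signal to blank ratio of 4 or more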
[7] = molecular target: T2, Recombinant Human DLL4 (R&D Systems …); assay: as above
[8] = molecular target: T3, rHuman ErbB2/Fc Chimera, CF (R&D …); assay: as above
[9] = molecular target: T4, rHuman HGF R/c-MET/Fc Chimera, CF (R&D …); assay: as above
[10] = molecular target: T5, rHuman CD44/Fc Chimera, CF (R&D Systems …); assay: as above
[11] = molecular target: T1, rHuman IGF-1 sR (IGF-1 sR), CF (R&D …); assay: ECL (MSD Multi-Spot) titration, antigen spotted on plate; Fab 0.00797 µM; blank spot 364;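 also: blank spot per well as comparator with Hit at signal to blank ratio of 4 or more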
[12] = molecular target: T2, Recombinant Human DLL4 (R&D Systems …); assay: as above
[13] = molecular target: T3, rHuman ErbB2/Fc Chimera, CF (R&D …); assay: as above
[14] = molecular target: T4, rHuman HGF R/c-MET/Fc Chimera, CF (R&D …); assay: as above
[15] = molecular target: T5, rHuman CD44/Fc Chimera, CF (R&D Systems …); assay: as above
[16] = molecular target: T1, rHuman IGF-1 sR (IGF-1 sR), CF (R&D …); assay: ECL (MSD Multi-Spot) titration, antigen spotted on plate; Fab 0.03188 µM; blank spot 536;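 also: blank spot per well as comparator with Hit at signal to blank ratio of 4 or more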
[17] = molecular target: T2, Recombinant Human DLL4 (R&D Systems …); assay: as above
[18] = molecular target: T3, rHuman ErbB2/Fc Chimera, CF (R&D …); assay: as above
[19] = molecular target: T4, rHuman HGF R/c-MET/Fc Chimera, CF (R&D …); assay: as above
[20] = molecular target: T5, rHuman CD44/Fc Chimera, CF (R&D Systems …); assay: as above
[21] = molecular target: T1, rHuman IGF-1 sR (IGF-1 sR), CF (R&D …); assay: ECL (MSD Multi-Spot) titration, antigen spotted on plate; Fab 0.096 µM; blank spot 917
[22] = molecular target: T1, rHuman IGF-1 sR (IGF-1 sR), CF (R&D …); assay: ECL (MSD Multi-Spot) titration, antigen spotted on plate; Fab 0.48 µM; blank spot 2945
[23] = molecular target: T1, rHuman IGF-1 sR (IGF-1 sR), CF (R&D …); assay: ECL (MSD Multi-Spot) titration, antigen spotted on plate; Fab 0.0192 µM; blank spot 751
[24] = molecular target: T1, rHuman IGF-1 sR (IGF-1 sR), CF (R&D …); assay: ECL (MSD Multi-Spot) titration, antigen spotted on plate; Fab 15 nM; blank spot 536;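 also: blank spot per well as comparator with Hit at signal to blank ratio of 4 or more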
[25] = molecular target: T2, Recombinant Human DLL4 (R&D Systems …); assay: as above
[26] = molecular target: T3, rHuman ErbB2/Fc Chimera, CF (R&D …); assay: as above
[27] = molecular target: T5, rHuman CD44/Fc Chimera, CF (R&D Systems …); assay: as above
[28] = molecular target: T1, rHuman IGF-1 sR (IGF-1 sR), CF (R&D …); assay: ECL (MSD Multi-Spot) titration, antigen spotted on plate; Fab 60 nM; blank spot 1433;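 also: blank spot per well as comparator with Hit at signal to blank ratio of 4 or more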
[29] = molecular target: T2, Recombinant Human DLL4 (R&D Systems …); assay: as above
[30] = molecular target: T3, rHuman ErbB2/Fc Chimera, CF (R&D …); assay: as above
[31] = molecular target: T5, rHuman CD44/Fc Chimera, CF (R&D Systems …); assay: as above
[32] = molecular target: T1, rHuman IGF-1 sR (IGF-1 sR), CF (R&D …); assay: ECL (MSD Multi-Spot) titration, antigen spotted on plate; Fab 3.75 nM; blank spot 191;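 also: blank spot per well as comparator with Hit at signal to blank ratio of 4 or more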
[33] = molecular target: T2, Recombinant Human DLL4 (R&D Systems …); assay: as above
[34] = molecular target: T3, rHuman ErbB2/Fc Chimera, CF (R&D …); assay: as above
[35] = molecular target: T5, rHuman CD44/Fc Chimera, CF (R&D Systems …); assay: as above
[36] = molecular target: T1, rHuman IGF-1 sR (IGF-1 sR), CF (R&D …); assay: ECL (MSD Multi-Spot) titration, antigen spotted on plate; Fab 0.9375 nM; blank spot 153;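 also: blank spot per well as comparator with Hit at signal to blank ratio of 4 or more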
[37] = molecular target: T2, Recombinant Human DLL4 (R&D Systems …); assay: as above
[38] = molecular target: T3, rHuman ErbB2/Fc Chimera, CF (R&D …); assay: as above
[39] = molecular target: T5, rHuman CD44/Fc Chimera, CF (R&D Systems …); assay: as above

B1: Fab VH4-34_IGHD7-27*01_IGHJ4*01 & L5_IGKJ1*01 (Fab, V domains shown)
VH: QVQLQQWGAGLLKPSETLSLTCAVYGGSFSGYYWSWIRQPPGKGLEWIGEINHSGSTNYNPSLKSRVTISVDTSKNQFSLKLSSVTAADTAVYYCARANWGDYFDYWGQGTLVTVSS
VL: DIQMTQSPSSVSASVGDRVTITCRASQGISSWLAWYQQKPGKAPKLLIYAASSLQSGVPSRFSGSGSGTDFTLTISSLQPEDFATYYCQQANSFPPWTFGQGTKVEIKR
notes: Made as a Fab in E. coli: VH joined to the CH1 of Plasmid A (Flag and His tags), VL joined to the kappa constant region of Plasmid C
In the case of B1, the ECL signal [1] is reported as 2240, the ECL signal [2] is reported as 5180 and the ECL signal [3] is reported as 1530. For the same binder, the ECL signal [4] was 1990, the ECL signal [5] was 2010 and the ECL signal [6] was 1040. The ECL signal [7] was 2380, the ECL signal [8] was 857 and the ECL signal [9] was 853. For the same binder, the ECL signal [10] was 926, the ECL signal [11] was 564 and the ECL signal [12] was 872. For the same binder, the ECL signal [13] was 493, the ECL signal [14] was 419 and the ECL signal [15] was 490. For the same binder, the ECL signal [16] was 765, the ECL signal [17] was 1280 and the ECL signal [18] was 584. For the same binder, the ECL signal [19] was 693 and the ECL signal [20] was 653.

B2: Fab VH1-46_IGHD6-13*01_IGHJ4*01 & A27_IGKJ1*01 (Fab, V domains shown)
VH: QVQLVQSGAEVKKPGASVKVSCKASGYTFTSYYMHWVRQAPGQGLEWMGIINPSGGSTSYAQKFQGRVTMTRDTSTSTVYMELSSLRSEDTAVYYCAREGYSSSWYDYFDYWGQGTLVTVSS
VL: not shown
notes: as for B1
With B2 the ECL signal [21] was 2450, the ECL signal [22] was 8930 and the ECL signal [23] was 1830.

B3: Fab VH1-3_IGHD4-23*01_IGHJ4*01 & L12_IGKJ1*01 (Fab, V domains shown)
VH: QVQLVQSGAEVKKPGASVKVSCKASGYTFTSYAMHWVRQAPGQRLEWMGWSNAGNGNTKYSQEFQGRVTITRDTSASTAYMELSSLRSEDMAVYYCARDDYGGNSDYFDYWGQGTLVTVSS
VL: not shown
B3 showed an ECL signal [24] of 859, an ECL signal [25] of 7730 and an ECL signal [26] of 740. For the same binder, the ECL signal [27] was 748, the ECL signal [28] was 2670 and the ECL signal [29] was 17300. For the same binder, the ECL signal [30] was 2160, the ECL signal [31] was 2360 and the ECL signal [32] was 314. The ECL signal [33] was 1570, the ECL signal [34] was 291 and the ECL signal [35] was 307. For the same binder, the ECL signal [36] was 204, the ECL signal [37] was 453 and the ECL signal [38] was 268. For the same binder, the ECL signal [39] was 251.
